Measured values taken from article doi:10.1101/2021.08.11.455960.

Legend:
[1] = molecular target: human angiotensin-converting enzyme 2 ectodomain (human) (UniProt Q9BYF1); assay: SPR
[2] = molecular target: Rhinolophus affinis angiotensin-converting enzyme 2 ectodomain (Rhinolophus affinis); assay: SPR

UniProt Q9BYF1, sequence (Q9BYF1 19-615): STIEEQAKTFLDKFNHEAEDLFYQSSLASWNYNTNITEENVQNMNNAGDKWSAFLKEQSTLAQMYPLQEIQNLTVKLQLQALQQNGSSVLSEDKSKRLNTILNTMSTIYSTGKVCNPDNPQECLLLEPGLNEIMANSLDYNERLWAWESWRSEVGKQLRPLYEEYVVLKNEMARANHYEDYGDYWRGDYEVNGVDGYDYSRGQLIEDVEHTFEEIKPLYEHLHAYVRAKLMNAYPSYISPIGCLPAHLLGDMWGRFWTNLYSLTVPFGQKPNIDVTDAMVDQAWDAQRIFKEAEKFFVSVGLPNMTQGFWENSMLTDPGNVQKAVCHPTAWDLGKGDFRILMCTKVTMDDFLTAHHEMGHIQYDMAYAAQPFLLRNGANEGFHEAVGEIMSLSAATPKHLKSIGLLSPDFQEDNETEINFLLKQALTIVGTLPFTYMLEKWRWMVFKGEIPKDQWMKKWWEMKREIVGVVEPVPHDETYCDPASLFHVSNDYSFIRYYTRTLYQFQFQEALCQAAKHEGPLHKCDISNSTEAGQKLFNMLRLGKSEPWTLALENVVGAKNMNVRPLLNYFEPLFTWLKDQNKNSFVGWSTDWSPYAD

## RaTG13 spike receptor binding domain (domain or fragment)
[1]
  Kd: 21 nM
[2]
  Kd: 12 nM
